± gives the standard deviation of the averaged measurements.
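Also: ATP exposure 15 min at 22 °C before imaging.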

This data set has as its system ATP. Kind of data set: switch fluorescence ratio, 500 uM ATP over buffer (Cy3 cluster intensity, sum of 5 cycles each) (fold (ratio)); higher = stronger signal-on switching upon ATP binding; sequences stand for … in TCGTCGGCAGCGTCAGATGTGTATAAGAGACAGTTTTTTTTTTTTTTTTTTTTTTTTT…TC. To be noted: aptamer strand: ATP DNA aptamer (quencher-CACCTGGGGGAGTATTGCGGAGGAAGG + anchor), 100 nM annealed; ATP concentration: 500 uM. In outline: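 Imaging in selection buffer was followed by imaging after 15 min with 500 uM ATP at 22 °C, for Cy3-labelled switching-strand clusters annealed to 100 nM quencher-labelled ATP aptamer on a modified Illumina MiSeq flow-cell. Five of these buffer/ATP cycles ran, separated by NaOH stripping and re-annealing. The fluorescence ratio per cluster is summed target-cycle over summed buffer-cycle Cy3 intensity, averaged per switch-domain sequence; clusters outside 100-1000 RFU were removed.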
Consider TGTGGGATGT, for which the switch fluorescence ratio was 0.9704 ± 0.0039.
With ATATAGGATT the figure was 0.9893 ± 0.0068; with TGTTCCGCCC, 2.012 ± 0.0024; with TCCCCTTTTT, 1.04 ± 0.015.
Take AGGGCGTTGT: the switch fluorescence ratio turned out to be 0.969 ± 0.035.
In the case of CGCCGGCTTT, the switch fluorescence ratio was determined as 1.019 ± 0.0085.
As for AAATTGGGCT, the switch fluorescence ratio is 1.03 ± 0.026.
On to GAAAGGCAGA, for which the switch fluorescence ratio came to 1.01 ± 0.01.
For the sequence TTTTTGCCTA, the switch fluorescence ratio was 1.015 ± 0.0089.
As to GGGGATACTG, the switch fluorescence ratio worked out at 1.31 ± 0.33.
AGGAGGACGT: the switch fluorescence ratio was found to be 0.964 ± 0.06.
With CCTAGGGGAA the figure was 1.02 ± 0.022; with GTGTAAGTGT, 0.9821 ± 0.0046.
With TCTACGAAGG, the switch fluorescence ratio came out at 1.034 ± 0.0012.
For CATTAAGGGT, the switch fluorescence ratio was found to be 0.992 ± 0.029.
On to TTAAAGCCTT, for which the switch fluorescence ratio was 1.03 ± 0.053.
TAGGGAATCA: the switch fluorescence ratio stood at 0.97 ± 0.014.
On to AAAGTGTTGG, for which the switch fluorescence ratio was found to be 1.02 ± 0.022.
For the sequence AGGGGAAGAA, the switch fluorescence ratio was 1 ± 0.019.
On to GTTGGTTGGG, for which the switch fluorescence ratio amounted to 0.975 ± 0.023.
Consider GGTTGAGGTG, for which the switch fluorescence ratio came out at 1.01 ± 0.039.
On to TAAGATGAGA, for which the switch fluorescence ratio was 0.936 ± 0.0097.
TAATTACTCA: the switch fluorescence ratio is 1.045 ± 0.01.
As for ACGAAGTTAG, the switch fluorescence ratio stood at 0.998 ± 0.015.
GAAGGGACGT: the switch fluorescence ratio was 1.07 ± 0.026.
Regarding AAATGGGGAT, the switch fluorescence ratio is 1.01 ± 0.032.
With TCACGAACCT the figure was 1.69 ± 0.1; with GGTGATGGGG, 0.985 ± 0.038; with CAGAGTTCGG, 1.03 ± 0.015.
For TAAGTGCCAA, the switch fluorescence ratio came out at 1.01 ± 0.032.
Turning to CCGTAAGCAG, the switch fluorescence ratio is 1.96 ± 0.034.
As for GTCTGGGCGA, the switch fluorescence ratio stood at 1.01 ± 0.033.
With AATGGTGGCT, the switch fluorescence ratio is 1.11 ± 0.099.
CGTATGCAAA: the switch fluorescence ratio turned out to be 1.06 ± 0.058.
With TATTTCTCGT, the switch fluorescence ratio was found to be 1.01 ± 0.056.
Consider CGGGGCGGGG, for which the switch fluorescence ratio was determined as 0.985 ± 0.012.
In the case of AAAAGTGTTT, the switch fluorescence ratio worked out at 0.99 ± 0.033.
Consider TAAGCTTTTT, for which the switch fluorescence ratio turned out to be 1 ± 0.033.
With TACGGGTGCT the figure was 1.16 ± 0.16.
In the case of AAACTGGAT, the switch fluorescence ratio is 1.01 ± 0.033.
Turning to ACGTTTGGAT, the switch fluorescence ratio turned out to be 1.02 ± 0.027.
Take TGCTGTATTC: the switch fluorescence ratio was found to be 0.967 ± 0.041.
Turning to TTTTTGTGA, the switch fluorescence ratio amounted to 0.995 ± 0.026.
With TACCAAGTCC the figure was 1.05 ± 0.061; with TAGCGCATGG, 1.08 ± 0.046; with GTACTAGTAT, 0.977 ± 0.023.
Under GGAGTTTAAA stands 0.999 ± 0.043.
Under TCTTATGCTC stands 0.98 ± 0.022; under TCATCGTGCC, 0.99 ± 0.032; under GTGGAGGGGC, 0.958 ± 0.081.
Turning to AGGGAAGGGG, the switch fluorescence ratio was 1.1 ± 0.17.
With TTTCATTCTC the figure was 0.991 ± 0.01.
TATGAGGCTT: the switch fluorescence ratio was 0.999 ± 0.028.
GATGCGGGTG: the switch fluorescence ratio was 1.07 ± 0.016.
Take TTCCCACTAC: the switch fluorescence ratio was 2.63 ± 0.086.
Take GTTTTGATTA: the switch fluorescence ratio was determined as 0.973 ± 0.017.
With GTGGGTAGTG, the switch fluorescence ratio was determined as 0.996 ± 0.038.
Under AGATTGAATT stands 1.02 ± 0.062.
With CCAGGTTTGG the figure was 1.03 ± 0.024.
In the case of GGTGGGGACG, the switch fluorescence ratio worked out at 0.974 ± 0.037.
With GGTTGTTTTG, the switch fluorescence ratio was 1.017 ± 0.0097.
In the case of GAGGTACTGG, the switch fluorescence ratio is 1.018 ± 0.008.
In the case of GATATGATCA, the switch fluorescence ratio worked out at 0.9733 ± 0.0052.
In the case of GGGGTATGCC, the switch fluorescence ratio came to 1.01 ± 0.027.
Under TGTTGAAATT stands 1.03 ± 0.077; under ATATGGGAGG, 0.969 ± 0.016.
Take TAGGGCTGTG: the switch fluorescence ratio was 0.995 ± 0.059.
In the case of AAATCTTAAA, the switch fluorescence ratio was 0.9917 ± 0.0023.
As for GGGGCACTGG, the switch fluorescence ratio was determined as 1.03 ± 0.028.
Regarding TATGGCATGG, the switch fluorescence ratio amounted to 1 ± 0.05.
With TAGCGAATAG the figure was 1.19 ± 0.043; with TAACGAACGC, 1.65 ± 0.086.
With TATCTGTATA, the switch fluorescence ratio was found to be 1.11 ± 0.17.
Under CGTAAAGCAG stands 1.01 ± 0.061; under TTATTGCTTT, 1 ± 0.036; under GGGGTAGTAC, 1.03 ± 0.026.
For TTTCGGATAA, the switch fluorescence ratio was 1.02 ± 0.056.
Under ACCCACTGGG stands 1.06 ± 0.03.
For the sequence TTATTGTGCG, the switch fluorescence ratio stood at 1.03 ± 0.034.

(Values after the supplement of paper PMC10126150.)
